Assay results reported in patent US20240299562A1 (priority 2020, published 2024).
*1 amine or outer side, *2 acyl side, *3 side chain or, on linkers, in order; H or OH if unused. Where a SMILES comes first, the peptide text is derived from it. [ ]: non-standard residue; d: D form. The star is where a group is joined. X1 = CO[C@@H](C1CCCN1[*:1])[C@@H](C)C(=O)[*:2]; Dil = CC[C@H](C)[C@H](NC)[C@@H](CC(=O)O)OC; PABC = O=C(OCc1ccc(N[*:1])cc1)[*:2]; Phosphonoacetyl = O=C(CP(=O)(O)O)*; X2 = C[C@@H](N*)[C@@H](O)c1ccccc1; NMeV = CN[C@H](C(=O)O)C(C)C

System: U87 MG glioblastoma cells subcutaneously implanted in nude NMRI mice
Assay: In vivo activity of PhAc-ALLP-PABC-MMAE on U87 MG glioblastoma xenograft
Set-up: species or system mouse
Conditions: 2 mg/kg iv, once per week
Description: The in vivo efficacy of PhAc-ALLP-PABC-MMAE was tested in a mouse GBM model. U87 MG glioblastoma cells were subcutaneously (SC) implanted in nude NMRI mice. In total, 24 adult (9-10 weeks old) nude female NMRI mice (Janvier, France) were subjected to SC tumor cell grafting in the right flank. In total, 5×10^6 U87 MG cells resuspended in PBS plus Matrigel (1:1) were injected in 200 uL final volume. As soon as the tumors were palpable and reached the volume of 200 mm3 the treatment was started. At day zero, mice were randomly divided into 3 groups, based on the tumor volume, in order to have the following experimental sub-cohorts: • control group receiving the vehicle (PBS pH7.2) with a dose of 5 ml/kg, intravenously (iv), once per week (QW); • PhAc-ALLP-PABC-MMAE (2 mg/kg iv, QW); • MMAE (0.9 mg/kg iv, QW).
Treatments were performed once per week for a total of four tail vein administrations/injections (on days 1, 7, 14 and 21). One extra week of observation followed the active treatment phase. During the experiment, tumor volume was measured two times a week and was assessed three-dimensionally with a digital caliper (Mitutoyo, Illinois) using the following formula:
V=4/3π×[(d/2)^2×(D/2)], where d is the minor tumor axis and D is the major tumor axis.

In the case of CC[C@H](C)[C@@H]([C@@H](CC(=O)N1CCCC1[C@H](OC)[C@@H](C)C(=O)N[C@H](C)[C@@H](O)c1ccccc1)OC)N(C)C(=O)[C@@H](NC(=O)[C@H](C(C)C)N(C)C(=O)OCc1ccc(NC(=O)[C@@H]2CCCN2C(=O)[C@H](CC(C)C)NC(=O)[C@H](CC(C)C)NC(=O)[C@H](C)NC(=O)CP(=O)(O)O)cc1)C(C)C (some centres unmarked) [PhAc-ALLP-PABC-MMAE] (Phosphonoacetyl-ALLP[PABC][NMeV]V[Dil][X1]-X2), the Macroscopical toxicity is reported as “without any hint of macroscopical sign of toxicity” and the “Tumor volume compared to the untreated control group” value (four administrations) is reported as “importantly reduced the tumor volume”.
